Positions count from the first letter of the chain named. In names and notes the source's numbering stands.
Key:
[1] = target: β′D256A RNAP (core RNAP with β′ D256A and wild-type σ^70) (E. coli) (UniProt P0A7Z4)
[2] = target: ΔσAL RNAP (wild-type core RNAP with σ^70 lacking the acidic loop) (E. coli) (UniProt P0A7Z4)
[3] = target: Δσ1.1-RNAP (wild-type core RNAP with σ^70 lacking region 1.1) (E. coli) (UniProt P0A7Z4)
[4] = target: wild-type RNAP (core RNAP with wild-type σ^70, for in vitro transcription) (E. coli) (UniProt P0A7Z4)
[5] = target: T1, RNA polymerase β' subunit (E. coli, UniProt P0A8T7 1-1407); assay: cryo-EM structure; RP-DksA/ppGpp: RNAP (20 μM) preincubated with DksA (100 μM) and ppGpp (2 mM) 5 min at 37 °C in 10 mM HEPES pH 8.0, 50 mM NaCl, 0.1 mM EDTA, 5 mM DTT, 5 mM MgCl2, then rrnBP1 DNA (40 μM) 5 min at 37 °C; 8 mM CHAPSO; two classes, RP1-DksA/ppGpp (3.62 Å) and RP2-DksA/ppGpp (3.58 Å); conditions: both partners purified
T1 construct: RNA polymerase β' subunit, E. coli; As it stands in the holoenzyme m1; also called β’clamp; β’clamp-toe (β’CT)

RNA polymerase β subunit = target: T2, RNA polymerase β subunit (E. coli, UniProt P0A8V2 1-1342); assay: as above; conditions: both partners purified
T2 construct: RNA polymerase β subunit, E. coli; As it stands in the holoenzyme m1; also called βlobe/Si1; βgate loop (βGL)

B1: DksA (natural protein, E. coli)
chain: MQEGQNRKTSSLSILAIAGVEPYQEKPGEEYMNEAQLAHFRRILEAWRNQLRDEVDRTVTHMQDEAANFPDPVDRAAQEEEFSLELRNRDRERKLIKKIEKTLKKVEDEDFGYCESCGVEIGIRRLEARPTADLCIDCKTLAEIREKQMAG
notes: DksA used for cryo-EM, with ppGpp (2 mM) in the sample; also called global transcriptional regulator DksA
[1]
  K (d,app) of DksA from inhibition of in vitro transcription from rrnBP1 (DksA 10 nM to 10 μM), +ppGpp (100 μM): 1640 nM
  K (d,app) of DksA from inhibition of in vitro transcription from rrnBP1 (DksA 10 nM to 10 μM), −ppGpp: 4.54 µM
[2]
  K (d,app) of DksA from inhibition of in vitro transcription from rrnBP1 (DksA 10 nM to 10 μM), +ppGpp (100 μM): 1150 nM
  K (d,app) of DksA from inhibition of in vitro transcription from rrnBP1 (DksA 10 nM to 10 μM), −ppGpp: 3000 nM
[3]
  K (d,app) of DksA from inhibition of in vitro transcription from rrnBP1 (DksA 10 nM to 10 μM), −ppGpp: > 10 µM
[4]
  K (d,app) of DksA from inhibition of in vitro transcription from rrnBP1 (DksA 10 nM to 10 μM), +ppGpp (100 μM): 860 nM
  K (d,app) of DksA from inhibition of in vitro transcription from rrnBP1 (DksA 10 nM to 10 μM), −ppGpp: 2200 nM
[5]
  binding result: binds
RNA polymerase β subunit
  binding result: binds

B2: DksA D137A (natural protein)
chain: B1 chain with D137A
[4]
  K (d,app) of DksA D137A from inhibition of in vitro transcription from rrnBP1 (DksA 10 nM to 10 μM), +ppGpp (100 μM): 2440 nM
  K (d,app) of DksA D137A from inhibition of in vitro transcription from rrnBP1 (DksA 10 nM to 10 μM), −ppGpp: 3.9 µM

From PMC7822876, “Structural basis of ribosomal RNA transcription regulation” (Nature Communications, 2020)
